Experimental data taken from the MegaScale stability set (Tsuboyama et al. 2023).

B1: 5KPH (parent)
chain: EEKRQVKQVAKEKLLEQSPNSKVQVRRVQKQGNTIRVELELRTNGKKENYTVEVERQGNTWTVKRITRT

Variants of: B1
Assay: folding stability dG (cDNA display proteolysis); higher = more stable
Settings: PBS, room temperature

First: EEKRQVKQVAKEKLLEQSPNSKVQVRRVQKQGNTIRVELELRTNGKKENYTVEVERPGNTWTVKRITRT
Second: EEKRQVKQVAKEKLLEQSPNSKVQVRRVQKQGNTIRVELELRTNGKKENYTVEVERNGNTWTVKRITRT
The “folding stability dG” value of the first is lower: 2.19 kcal/mol for the first, 3.9 kcal/mol for the second.

Compared with EEKRQVKQVAKEKLLEQSPNSKVQVRRVQKQGNTIRVELELRTNGKKENYTVEVERHGNTWTVKRITRT, EEKRQVKQVAKEKLLEQSPNSKVQVRRVQKQGNTIRVELELRTNGKKENYTVEVERMGNTWTVKRITRT is higher in “folding stability dG” value: 3.82 kcal/mol for the first, 3.89 kcal/mol for the second.

Going from EEKRQVKQVAKEKLLEQSPNSKVQVRRVQKQGNTIRVELELRTNGKKENYTVEVERIGNTWTVKRITRT to EEKRQVKQVAKEKLLEQSPNSKVQVRRVQKQGNTIRVELELRTNGKKENYTVEVERLGNTWTVKRITRT, the “folding stability dG” value falls from 4.25 kcal/mol to 3.96 kcal/mol.

Compared with EEKRQVKQVAKEKLLEQSPNSKVQVRRVQKQGNTIRVELELRTNGKKENYTVEVERFGNTWTVKRITRT, EEKRQVKQVAKEKLLEQSPNSKVQVRRVQKQGNTIRVELELRTNGKKENYTVEVERSGNTWTVKRITRT is higher in “folding stability dG” value: 3.88 kcal/mol for the first, 3.89 kcal/mol for the second.

Going from EEKRQVKQVAKEKLLEQSPNSKVQVRRVQKQGNTIRVELELRTNGKKENYTVEVEREGNTWTVKRITRT to EEKRQVKQVAKEKLLEQSPNSKVQVRRVQKQGNTIRVELELRTNGKKENYTVEVERWGNTWTVKRITRT, the “folding stability dG” value falls from 4.17 kcal/mol to 3.83 kcal/mol.

EEKRQVKQVAKEKLLEQSPNSKVQVRRVQKQGNTIRVELELRTNGKKENYTVEVERYGNTWTVKRITRT and EEKRQVKQVAKEKLLEQSPNSKVQVRRVQKQGNTIRVELELRTNGKKENYTVEVERTGNTWTVKRITRT are the same in “folding stability dG” value: 4.03 kcal/mol for the first, 4.03 kcal/mol for the second.

First: EEKRQVKQVAKEKLLEQSPNSKVQVRRVQKQGNTIRVELELRTNGKKENYTVEVERGGNTWTVKRITRT
Second: EEKRQVKQVAKEKLLEQSPNSKVQVRRVQKQGNTIRVELELRTNGKKENYTVEVERVGNTWTVKRITRT
The “folding stability dG” value of the first is lower: 3.16 kcal/mol for the first, 4.18 kcal/mol for the second.

First: EEKRQVKQVAKEKLLEQSPNSKVQVRRVQKQGNTIRVELELRTNGKKENYTVEVERRGNTWTVKRITRT
Second: EEKRQVKQVAKEKLLEQSPNSKVQVRRVQKQGNTIRVELELRTNGKKENYTVEVERDGNTWTVKRITRT
The “folding stability dG” value of the first is lower: 3.73 kcal/mol for the first, 4.07 kcal/mol for the second.

Compared with EEKRQVKQVAKEKLLEQSPNSKVQVRRVQKQGNTIRVELELRTNGKKENYTVEVERKGNTWTVKRITRT, EEKRQVKQVAKEKLLEQSPNSKVQVRRVQKQGNTIRVELELRTNGKKENYTVEVERQGNTCTVKRITRT is lower in “folding stability dG” value: 3.83 kcal/mol for the first, 2.68 kcal/mol for the second.

Compared with EEKRQVKQVAKEKLLEQSPNSKVQVRRVQKQGNTIRVELELRTNGKKENYTVEVERQGNTATVKRITRT, EEKRQVKQVAKEKLLEQSPNSKVQVRRVQKQGNTIRVELELRTNGKKENYTVEVERQGNTETVKRITRT is lower in “folding stability dG” value: 2.23 kcal/mol for the first, 0.848 kcal/mol for the second.

Going from EEKRQVKQVAKEKLLEQSPNSKVQVRRVQKQGNTIRVELELRTNGKKENYTVEVERQGNTDTVKRITRT to EEKRQVKQVAKEKLLEQSPNSKVQVRRVQKQGNTIRVELELRTNGKKENYTVEVERQGCTWTVKRITRT, the “folding stability dG” value rises from 1.07 kcal/mol to 3.22 kcal/mol.

First: EEKRQVKQVAKEKLLEQSPNSKVQVRRVQKQGNTIRVELELRTNGKKENYTVEVERQGDTWTVKRITRT
Second: EEKRQVKQVAKEKLLEQSPNSKVQVRRVQKQGNTIRVELELRTNGKKENYTVEVERQGGTWTVKRITRT
The “folding stability dG” value of the first is higher: 4.01 kcal/mol for the first, 4 kcal/mol for the second.

Going from EEKRQVKQVAKEKLLEQSPNSKVQVRRVQKQGNTIRVELELRTNGKKENYTVEVERQGHTWTVKRITRT to EEKRQVKQVAKEKLLEQSPNSKVQVRRVQKQGNTIRVELELRTNGKKENYTVEVERQGLTWTVKRITRT, the “folding stability dG” value rises from 3.62 kcal/mol to 3.68 kcal/mol.

Going from EEKRQVKQVAKEKLLEQSPNSKVQVRRVQKQGNTIRVELELRTNGKKENYTVEVERQGRTWTVKRITRT to EEKRQVKQVAKEKLLEQSPNSKVQVRRVQKQGNTIRVELELRTNGKKENYTVEVERQGATWTVKRITRT, the “folding stability dG” value rises from 3.33 kcal/mol to 3.69 kcal/mol.

EEKRQVKQVAKEKLLEQSPNSKVQVRRVQKQGNTIRVELELRTNGKKENYTVEVERQGTTWTVKRITRT and EEKRQVKQVAKEKLLEQSPNSKVQVRRVQKQGNTIRVELELRTNGKKENYTVEVERQGQTWTVKRITRT are the same in “folding stability dG” value: 3.77 kcal/mol for the first, 3.77 kcal/mol for the second.

First: EEKRQVKQVAKEKLLEQSPNSKVQVRRVQKQGNTIRVELELRTNGKKENYTVEVERQGFTWTVKRITRT
Second: EEKRQVKQVAKEKLLEQSPNSKVQVRRVQKQGNTIRVELELRTNGKKENYTVEVERQGMTWTVKRITRT
The “folding stability dG” value of the first is lower: 3.54 kcal/mol for the first, 3.92 kcal/mol for the second.

First: EEKRQVKQVAKEKLLEQSPNSKVQVRRVQKQGNTIRVELELRTNGKKENYTVEVERQGWTWTVKRITRT
Second: EEKRQVKQVAKEKLLEQSPNSKVQVRRVQKQGNTIRVELELRTNGKKENYTVEVERQGYTWTVKRITRT
The “folding stability dG” value of the first is lower: 3.5 kcal/mol for the first, 3.82 kcal/mol for the second.

Compared with EEKRQVKQVAKEKLLEQSPNSKVQVRRVQKQGNTIRVELELRTNGKKENYTVEVERQGITWTVKRITRT, EEKRQVKQVAKEKLLEQSPNSKVQVRRVQKQGNTIRVELELRTNGKKENYTVEVERQGETWTVKRITRT is higher in “folding stability dG” value: 3.54 kcal/mol for the first, 3.92 kcal/mol for the second.

Going from EEKRQVKQVAKEKLLEQSPNSKVQVRRVQKQGNTIRVELELRTNGKKENYTVEVERQGPTWTVKRITRT to EEKRQVKQVAKEKLLEQSPNSKVQVRRVQKQGNTIRVELELRTNGKKENYTVEVERQGVTWTVKRITRT, the “folding stability dG” value falls from 3.84 kcal/mol to 3.42 kcal/mol.

For EEKRQVKQVAKEKLLEQSPNSKVQVRRVQKQGNTIRVELELRTNGKKENYTVEVERQGKTWTVKRITRT, the “folding stability dG” value was 3.73 kcal/mol.
